Patent publication US20260098059A1 (ENDOMET BIOSCIENCES, published 2026)
Values joined by “and” are separate entries in the source; they are usually repeats but may differ in a detail not shown here. Equal values may be shown once. Bridges are numbered along the chain shown (N, C = ends). Where no end group is shown, it is not given here. [ ]: non-standard residue; d: D form. NMeW = CN[C@@H](Cc1c[nH]c2ccccc12)C(=O)O; Chg = N[C@H](C(=O)O)C1CCCCC1; αMeV = CC(C)[C@](C)(N)C(=O)O; αMeS = C[C@](N)(CO)C(=O)O; NMeA = CN[C@@H](C)C(=O)O

T1: β-catenin (UniProt P35222 134-665, limits assumed, biotinylated in the SPR and plate assays)
T1 construct: also called beta catenin; biotinylated β-catenin
T1 sequence (looked up): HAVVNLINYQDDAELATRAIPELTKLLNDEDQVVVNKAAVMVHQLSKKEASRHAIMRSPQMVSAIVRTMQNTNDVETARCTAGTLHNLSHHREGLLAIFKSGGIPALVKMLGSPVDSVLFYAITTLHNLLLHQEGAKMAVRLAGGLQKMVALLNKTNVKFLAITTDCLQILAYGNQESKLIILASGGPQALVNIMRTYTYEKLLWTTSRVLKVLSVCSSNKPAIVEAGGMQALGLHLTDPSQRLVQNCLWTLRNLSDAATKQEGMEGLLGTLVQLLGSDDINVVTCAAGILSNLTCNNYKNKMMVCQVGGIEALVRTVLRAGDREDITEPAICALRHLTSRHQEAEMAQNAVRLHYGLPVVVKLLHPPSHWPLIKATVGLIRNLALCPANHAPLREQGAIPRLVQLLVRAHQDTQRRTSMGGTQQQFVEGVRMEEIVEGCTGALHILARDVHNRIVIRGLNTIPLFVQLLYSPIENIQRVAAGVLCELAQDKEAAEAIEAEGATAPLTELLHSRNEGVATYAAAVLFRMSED


Columns and labels:
β-catenin [1] = target: T1, β-catenin; assay: competitive FP
How it was run: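 Competitive fluorescence polarization with inhibitor peptide serially diluted from 10 nM to 30 uM; polarization read at 470 nm excitation, 520 nm emission. Experiments performed three times.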

β-catenin [2] = target: T1, β-catenin; assay: cell-based or functional assay

Binder | Kd (β-catenin [1]) | Proliferation IC50, Endo cells (β-catenin [2]) | Proliferation IC50, Wnt dependent cells (β-catenin [2]) | Wnt Reporter EC50 (β-catenin [2])
WAQKILNEHGQRVWG (HELM PEPTIDE1{[ac].W.[meA].Q.K.I.L.N.E.H.[O=C([C@@H](N[*:1])C1CCCCC1)[*:2]].Q.R.V.W.G.[am]}$PEPTIDE1,PEPTIDE1,5:R3-9:R3$$$V2.0; SMILES CC[C@H](C)[C@@H]1NC(=O)[C@@H](NC(=O)[C@H](CCC(N)=O)NC(=O)[C@H](C)N(C)C(=O)[C@H](Cc2c[nH]c3ccccc23)NC(C)=O)CCCCNC(=O)CC[C@@H](C(=O)N[C@@H](Cc2c[nH]cn2)C(=O)N[C@H](C(=O)N[C@@H](CCC(N)=O)C(=O)N[C@@H](CCCNC(=N)N)C(=O)N[C@H](C(=O)N[C@@H](Cc2c[nH]c3ccccc23)C(=O)NCC(N)=O)C(C)C)C2CCCCC2)NC(=O)[C@H](CC(N)=O)NC(=O)[C@H](CC(C)C)NC1=O) [SEQ ID NO: 435] | ≤ 0.4 µM |  |  | > 30 µM
WAQKILDEHGQRVWG (HELM PEPTIDE1{W.[meA].Q.K.I.L.D.E.H.[O=C([C@@H](N[*:1])C1CCCCC1)[*:2]].Q.R.V.W.G.[am]}$PEPTIDE1,PEPTIDE1,4:R3-8:R3$$$V2.0; SMILES CC[C@H](C)[C@@H]1NC(=O)[C@@H](NC(=O)[C@H](CCC(N)=O)NC(=O)[C@H](C)N(C)C(=O)[C@@H](N)Cc2c[nH]c3ccccc23)CCCCNC(=O)CC[C@@H](C(=O)N[C@@H](Cc2c[nH]cn2)C(=O)N[C@H](C(=O)N[C@@H](CCC(N)=O)C(=O)N[C@@H](CCCNC(=N)N)C(=O)N[C@H](C(=O)N[C@@H](Cc2c[nH]c3ccccc23)C(=O)NCC(N)=O)C(C)C)C2CCCCC2)NC(=O)[C@H](CC(=O)O)NC(=O)[C@H](CC(C)C)NC1=O) [SEQ ID NO: 403] | ≤ 0.4 µM |  |  | > 30 µM
WAQKILDEHGQRVWG (HELM PEPTIDE1{[O=C(O)CCC(=O)[*:2]].W.[meA].Q.K.I.L.D.E.H.[O=C([C@@H](N[*:1])C1CCCCC1)[*:2]].Q.R.V.W.G.[am]}$PEPTIDE1,PEPTIDE1,5:R3-9:R3$$$V2.0; SMILES CC[C@H](C)[C@@H]1NC(=O)[C@@H](NC(=O)[C@H](CCC(N)=O)NC(=O)[C@H](C)N(C)C(=O)[C@H](Cc2c[nH]c3ccccc23)NC(=O)CCC(=O)O)CCCCNC(=O)CC[C@@H](C(=O)N[C@@H](Cc2c[nH]cn2)C(=O)N[C@H](C(=O)N[C@@H](CCC(N)=O)C(=O)N[C@@H](CCCNC(=N)N)C(=O)N[C@H](C(=O)N[C@@H](Cc2c[nH]c3ccccc23)C(=O)NCC(N)=O)C(C)C)C2CCCCC2)NC(=O)[C@H](CC(=O)O)NC(=O)[C@H](CC(C)C)NC1=O) [SEQ ID NO: 405] | ≤ 0.4 µM |  | 26.8 µM | > 15 µM and ≤ 22.5 µM
ARLPESILDEHVQRVWP (HELM PEPTIDE1{[bAla].R.L.P.E.S.I.L.D.E.H.V.Q.R.V.W.P.[am]}$$$$V2.0; SMILES CC[C@H](C)[C@H](NC(=O)[C@H](CO)NC(=O)[C@H](CCC(=O)O)NC(=O)[C@@H]1CCCN1C(=O)[C@H](CC(C)C)NC(=O)[C@H](CCCNC(=N)N)NC(=O)CCN)C(=O)N[C@@H](CC(C)C)C(=O)N[C@@H](CC(=O)O)C(=O)N[C@@H](CCC(=O)O)C(=O)N[C@@H](Cc1c[nH]cn1)C(=O)N[C@H](C(=O)N[C@@H](CCC(N)=O)C(=O)N[C@@H](CCCNC(=N)N)C(=O)N[C@H](C(=O)N[C@@H](Cc1c[nH]c2ccccc12)C(=O)N1CCC[C@H]1C(N)=O)C(C)C)C(C)C) [SEQ ID NO: 410] | > 0.4 µM and ≤ 1 µM |  |  | > 30 µM
RWPQKILDEHVRRVWR (HELM PEPTIDE1{[ac].R.W.P.Q.K.I.L.D.E.H.V.R.R.V.W.R.[am]}$PEPTIDE1,PEPTIDE1,6:R3-10:R3$$$V2.0; SMILES CC[C@H](C)[C@@H]1NC(=O)[C@@H](NC(=O)[C@H](CCC(N)=O)NC(=O)[C@@H]2CCCN2C(=O)[C@H](Cc2c[nH]c3ccccc23)NC(=O)[C@H](CCCNC(=N)N)NC(C)=O)CCCCNC(=O)CC[C@@H](C(=O)N[C@@H](Cc2c[nH]cn2)C(=O)N[C@H](C(=O)N[C@@H](CCCNC(=N)N)C(=O)N[C@@H](CCCNC(=N)N)C(=O)N[C@H](C(=O)N[C@@H](Cc2c[nH]c3ccccc23)C(=O)N[C@@H](CCCNC(=N)N)C(N)=O)C(C)C)C(C)C)NC(=O)[C@H](CC(=O)O)NC(=O)[C@H](CC(C)C)NC1=O) [SEQ ID NO: 428] | ≤ 0.4 µM |  |  | > 30 µM
H-W[NMeW]ESILDEH[αMeV]QRVWG-NH2 [SEQ ID NO: 39] | ≤ 0.4 µM |  |  | > 30 µM
W[NMeA]QSILDEHVQKVWG-NH2 (lactam 8-12; not fully specified (N-terminus); printed as H17C8C(O)NH-W-NmeA-QSILDE*HVQK*VWG-NH2) [SEQ ID NO: 438] | ≤ 0.4 µM |  |  | ≤ 7.5 µM

Now from value to binder:

Kd (β-catenin [1]) | Proliferation IC50, Endo cells (β-catenin [2]) | Proliferation IC50, Wnt dependent cells (β-catenin [2]) | Wnt Reporter EC50 (β-catenin [2]) | Binder
≤ 0.4 µM | 0.8 µM | 14.9 µM | > 7.5 µM and ≤ 15 µM | W[NMeA]QKILDDH[Chg]QRVWG-NH2 (lactam 4-8; not fully specified (N-terminus); printed as H23C11C(O)NH-W-NMeA-QK*ILDD*H-Chg-QRVWG-NH2) [SEQ ID NO: 432]
≤ 0.4 µM |  |  | > 30 µM | WAQKILDEHGQRVWR (HELM PEPTIDE1{[ac].W.[meA].Q.K.I.L.D.E.H.[O=C([C@@H](N[*:1])C1CCCCC1)[*:2]].Q.R.V.W.R.[am]}$PEPTIDE1,PEPTIDE1,5:R3-9:R3$$$V2.0; SMILES CC[C@H](C)[C@@H]1NC(=O)[C@@H](NC(=O)[C@H](CCC(N)=O)NC(=O)[C@H](C)N(C)C(=O)[C@H](Cc2c[nH]c3ccccc23)NC(C)=O)CCCCNC(=O)CC[C@@H](C(=O)N[C@@H](Cc2c[nH]cn2)C(=O)N[C@H](C(=O)N[C@@H](CCC(N)=O)C(=O)N[C@@H](CCCNC(=N)N)C(=O)N[C@H](C(=O)N[C@@H](Cc2c[nH]c3ccccc23)C(=O)N[C@@H](CCCNC(=N)N)C(N)=O)C(C)C)C2CCCCC2)NC(=O)[C@H](CC(=O)O)NC(=O)[C@H](CC(C)C)NC1=O) [SEQ ID NO: 449]
≤ 0.4 µM |  |  | > 30 µM | H-W[NMeW]E[αMeS]ILDEH[αMeV]QRVWG-NH2 [SEQ ID NO: 38]
≤ 0.4 µM |  |  | > 30 µM | ARLPESILDEHVQRVWP (HELM PEPTIDE1{[ac].[bAla].R.L.P.E.S.I.L.D.E.H.V.Q.R.V.W.P.[am]}$$$$V2.0; SMILES CC[C@H](C)[C@H](NC(=O)[C@H](CO)NC(=O)[C@H](CCC(=O)O)NC(=O)[C@@H]1CCCN1C(=O)[C@H](CC(C)C)NC(=O)[C@H](CCCNC(=N)N)NC(=O)CCNC(C)=O)C(=O)N[C@@H](CC(C)C)C(=O)N[C@@H](CC(=O)O)C(=O)N[C@@H](CCC(=O)O)C(=O)N[C@@H](Cc1c[nH]cn1)C(=O)N[C@H](C(=O)N[C@@H](CCC(N)=O)C(=O)N[C@@H](CCCNC(=N)N)C(=O)N[C@H](C(=O)N[C@@H](Cc1c[nH]c2ccccc12)C(=O)N1CCC[C@H]1C(N)=O)C(C)C)C(C)C) [SEQ ID NO: 413]
